Laboratory results published in US20150210768A1, “Methods and Compounds for Preventing, Treating and Diagnosing an Inflammatory Condition” (Westfaelische Wilhelms-Universitaet Muenster, priority 2012, published 2015).
Substitutions are numbered along the chain they refer to. Numbers in names are those of the source. Blank lines part the entries; values can stand above or below the molecule they belong to.

Tests used:
his-tagged rhTLR4/MD2 [1] = molecular target: T1, his-tagged rhTLR4/MD2 (human, UniProt O00206 24-631; Q9Y6Y9 19-160); test: modified S100A9 ELISA, TLR4/MD2 coated on the plate, 2 ug/ml S100A9 protein, absorbance at 450 nm (FIG. 6C)
T1 construct: Bought recombinant human complex (carrier free, R&D SYSTEMS), his-tagged; In the pull-down it was captured by anti-His antibody on Protein A/G agarose; in the ELISA it was coated on the plate; also called TLR4/MD2 complex; TRLR4/MD2
Experimental: (§1) Binding of S100A9 proteins to TLR4/MD2 was analysed by a modified S100A9-ELISA. Briefly, TLR4/MD2 was coupled to the wells of a 96-well plate and served as capturing molecule. After blocking of the unspecific binding sites by PBS/5% skim milk powder plates were washed three times. S100A9-wt or mutant S100A9 proteins were added at a concentration of 2 μg/ml each in the presence and absence of 100 μM Calcium and incubated for two hours at room temperature. Unbound S100A9 was removed by washing the plates for three times followed by the addition of a primary anti-S100A9-antibody (1 μg/ml, polyclonal, rabbit). After a washing step the secondary anti-rabbit-IgG-antibody coupled to HRP (1 μg/ml from Cell Signalling) was added. TMB was used as substrate for HRP to quantify binding by absorbance readings at 450 nm in an ELISA reader (Anthos Mirkosysteme).

human monocytes = test: Stimulation of human monocytes, TNFα release quantified by ELISA; type: cell-based; settings: for activation of monocytes (TNFα released into the culture medium): human monocytes stimulated for four hours, TNFα by ELISA, FIG. 1; for effect of mutation on function of the S100A9 homodimer: purified mutant S100A9 proteins, alanine exchange, binding to and activation of TLR4
Text: Using standard techniques known in the art, the inventors expressed the individual human proteins S100A8 and S100A9 in recombinant form, and purified them. After generating homodimers and heterodimers, they analysed the properties of the complexes. FIG. 1 illustrates the stimulation of human monocytes for four hours with the indicated concentrations of (A) recombinant human S100A8, recombinant human S100A9 or human S100A8/S100A9, and (B) recombinant human S100A8/S100A9, recombinant human S100A8/S100A9 (N69A) or S100A8/S100A9 (E78A). TNFα released into the culture medium was quantified by means of ELISA.
Monocytes were isolated from human buffy coats by Ficoll-Paque and subsequent Percoll density centrifugation (Pharmacia, Freiburg, Germany) Cells were cultured in Teflon bags (Biofolie 25; Heraeus Instruments, Hanau, Germany) using McCoy's 5a medium supplemented with 15% fetal calf serum for 1 day before stimulation. Monocytes were incubated for 4 hours with different dosis of hS100A8, hS100A9, hS100A8/S100A9 or the modified proteins as indicated in the figures and TNF-α concentrations in supernatants were determined by ELISA (OptEIA, BD Biosciences, Germany).
Release of cytokine TNF-α was measured in the culture supernatants by ELISA (OptEIA, BD Biosciences). […]

his-tagged rhTLR4/MD2 [2] = molecular target: T1, his-tagged rhTLR4/MD2; test: modified S100A9 ELISA, TLR4/MD2 coated on the plate, 2 ug/ml S100A9 protein, absorbance at 450 nm
Experimental: as §1

TLR4/MD2 = TLR4/MD2 (Homo sapiens, UniProt O00206); test: Binding of S100A9-wt and mutant proteins to TLR4/MD2 (modified S100A9-ELISA); settings: 2 μg/ml protein, plate-coupled TLR4/MD2, absorbance 450 nm; FIG. 6B, 6C
Experimental: as §1

T1 sequence (O00206 24-631 limits assumed, chain 1 of 2): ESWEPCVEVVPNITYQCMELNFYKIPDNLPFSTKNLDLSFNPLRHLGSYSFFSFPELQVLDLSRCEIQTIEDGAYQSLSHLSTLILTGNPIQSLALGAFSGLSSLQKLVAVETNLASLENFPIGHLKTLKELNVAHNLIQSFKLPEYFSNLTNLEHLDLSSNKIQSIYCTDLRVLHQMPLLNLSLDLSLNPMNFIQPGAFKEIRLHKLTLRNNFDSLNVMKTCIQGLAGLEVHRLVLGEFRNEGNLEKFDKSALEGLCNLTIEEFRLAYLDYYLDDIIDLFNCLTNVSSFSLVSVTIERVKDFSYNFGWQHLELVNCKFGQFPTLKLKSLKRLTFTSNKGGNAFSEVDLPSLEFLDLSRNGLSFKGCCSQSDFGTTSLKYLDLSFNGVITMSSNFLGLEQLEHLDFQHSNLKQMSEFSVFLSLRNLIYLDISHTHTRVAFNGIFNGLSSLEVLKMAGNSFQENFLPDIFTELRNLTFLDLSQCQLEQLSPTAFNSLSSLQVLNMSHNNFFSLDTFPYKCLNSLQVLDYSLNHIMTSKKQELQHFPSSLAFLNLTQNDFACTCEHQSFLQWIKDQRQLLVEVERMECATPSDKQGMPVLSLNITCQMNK
T1 sequence (Q9Y6Y9 19-160 limits assumed, chain 2 of 2): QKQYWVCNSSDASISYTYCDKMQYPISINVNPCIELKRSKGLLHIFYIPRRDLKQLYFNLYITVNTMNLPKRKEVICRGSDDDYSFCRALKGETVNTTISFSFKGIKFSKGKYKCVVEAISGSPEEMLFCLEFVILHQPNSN
Sequence of TLR4/MD2 (O00206 24-631 limits assumed): as the sequence (O00206 24-631 limits assumed, chain 1 of 2) above
Sequence of TLR4/MD2 (Q9Y6Y9 17-160 partner limits assumed): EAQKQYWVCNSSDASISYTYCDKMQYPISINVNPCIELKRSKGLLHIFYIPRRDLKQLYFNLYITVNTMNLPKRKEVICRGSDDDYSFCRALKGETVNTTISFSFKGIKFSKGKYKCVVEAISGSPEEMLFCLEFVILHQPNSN

B2: heterotetrameric complex between S100A8 and S100A9: complex of recombinant human S100A8 and S100A9, heterotetramer in presence of calcium (protein)
chain 1: MLTELEKALNSIIDVYHKYSLIKGNFHAVYRDDLKKLLETECPQYIRKKGADVWFKELDINTDGAVNFQEFLILVIKMGVAAHKKSHEESHKE
chain 2: MTCKMSQLERNIETIINTFHQYSVKLGHPDTLNQGEFKELVRKDLQNFLKKENKNEKVIEHIMEDLDTNADKQLSFEEFIMLMARLTWASHEKMHEGDEGPGHHHKPGLGEGTP
activation of monocytes (TNFα released into the culture medium) (human monocytes): does not induce an inflammatory response in monocytes
activation of monocytes (TNFα released into the culture medium) (human monocytes; listed as heterotetrameric complex of s100A8 and S100A9): did not show activating properties that would be comparable to the individual components

B3: S100A9: recombinant human protein S100A9 (Uniprot P06702), used as homodimer (protein)
chain: B2 chain 2
activation of monocytes (TNFα released into the culture medium) (human monocytes): induce a particular strong, pro-inflammatory response in monocytes
activation of monocytes (TNFα released into the culture medium) (human monocytes; listed as homodimers of S100A9): induce this response

B5: S100A9D65A (ligand)
chain: B2 chain 2 with D65A
notes: Purified recombinant mutant of human S100A9, homodimer; also called S100A9 D65A mutant
binding result (his-tagged rhTLR4/MD2 [2]): binds
binding to the receptor compared to non-mutated protein (S100A9 wt) (TLR4/MD2): weaker binding
effect of mutation on function of the S100A9 homodimer (human monocytes): loss of function

B11: S100A9 double mutant with alanine at both E64 and Q73 (ligand)
chain: B2 chain 2 with E64A, Q73A
notes: Purified recombinant double mutant of human S100A9, homodimer
binding result (his-tagged rhTLR4/MD2 [1]): binds

B12: S100A8: recombinant human protein S100A8 (Uniprot P05109), used as homodimer (protein)
chain: B2 chain 1
activation of monocytes (TNFα released into the culture medium) (human monocytes): induce a particular strong, pro-inflammatory response in monocytes
activation of monocytes (TNFα released into the culture medium) (human monocytes; listed as homodimers of S100A8): induce this response

Second part, led by results:

binding result (his-tagged rhTLR4/MD2 [1]): binds
B1: S100A9 double mutant with alanine at both D65 and Q73 (ligand)
chain: B2 chain 2 with D65A, Q73A
notes: as for B11

binding result (his-tagged rhTLR4/MD2 [2]): binds
B4: S100A9R85A (ligand)
chain: B2 chain 2 with R85A
notes: Purified recombinant mutant of human S100A9, homodimer; also called S100A9 R85A mutant
binding to the receptor compared to non-mutated protein (S100A9 wt) (TLR4/MD2): not significantly different from the wild type protein
effect of mutation on function of the S100A9 homodimer (human monocytes): hardly any effect

binding result (his-tagged rhTLR4/MD2 [1]): binds
B6: S100A9 double mutant with alanine at both E64 and D65 (ligand)
chain: B2 chain 2 with E64A, D65A
notes: as for B11

binding result (his-tagged rhTLR4/MD2 [2]): binds
binding to the receptor compared to non-mutated protein (S100A9 wt) (TLR4/MD2): weaker binding
B7: S100A9E64A (ligand)
chain: B2 chain 2 with E64A
notes: Purified recombinant mutant of human S100A9, homodimer; also called S100A9 E64A mutant
effect of mutation on function of the S100A9 homodimer (human monocytes): loss of function

binding result (his-tagged rhTLR4/MD2 [2]): binds
binding to the receptor compared to non-mutated protein (S100A9 wt) (TLR4/MD2): weaker binding
B8: S100A9E77A (ligand)
chain: B2 chain 2 with E77A
notes: Purified recombinant mutant of human S100A9, homodimer; also called S100A9 E77A mutant
effect of mutation on function of the S100A9 homodimer (human monocytes): loss of function

binding result (his-tagged rhTLR4/MD2 [2]): binds
B9: S100A9K72A (ligand)
chain: B2 chain 2 with K72A
notes: Purified recombinant mutant of human S100A9, homodimer; also called S100A9 K72A mutant
binding to the receptor compared to non-mutated protein (S100A9 wt) (TLR4/MD2): not significantly different from the wild type protein
effect of mutation on function of the S100A9 homodimer (human monocytes): hardly any effect

binding result (his-tagged rhTLR4/MD2 [2]): binds
binding to the receptor compared to non-mutated protein (S100A9 wt) (TLR4/MD2): weaker binding
B10: S100A9Q73A (ligand)
chain: B2 chain 2 with Q73A
notes: Purified recombinant mutant of human S100A9, homodimer; also called S100A9 Q73A mutant
effect of mutation on function of the S100A9 homodimer (human monocytes): loss of function
